Results reported in paper PMC7710607.

Molecular target: ACSL1 (UniProt P41216)
Assay: GST-TBK1 binding to bead-bound flag-ACSL1
Settings: reference: ΔC (1-657) wild type; sites S172

Q: How did the “binding against the reference” value turn out when “mouse TBK1 (mTBK1, GST-TBK1) C-terminal truncated, 1-657 (from UniProt Q9WUN2) ΔC (1-657) S172A” was run?
A: Its value is “stronger”.
